# Substitutions are numbered along the chain they refer to. Numbers in names are those of the source.
# B1: NNS6f73 (antibody)
# heavy: QVQLVESGGGLVQPGRSLRLSCAASGFTFSNAWMHWVRQAPGKGLEWVAQIKDKSNNYATYYAESVKGRFTISRDDSKNSIYLQMNSLKTEDTAVYYCRYVHYAAWVVGVRYYGVDAWGQGTTVTVSSASTKGPSVFPLAPSSKSTSGGTAALGCLVKDYFPEPVTVSWNSGALTSGVHTFPAVLQSSGLYSLSSVVTVPSSSLGTQTYICNVNHKPSNTKVDKKVEPKSCDKTHTCPPCPAPEAAGGPSVFLFPPKPKDTLMISRTPEVTCVVVDVSHEDPEVKFNWYVDGVEVHNAKTKPREEQYASTYRVVSVLTVLHQDWLNGKEYKCKVSNKALPAPIEKTISKAKGQPREPQVYTLPPSRCELTKNQVSLSCAVKGFYPSDIAVEWESNGQPENNYKTTPPVLDSDGSFFLVSKLTVDKSRWQQGNVFSCSVMHEALHNHYTQKSLSLSPDYKDDDDK
# chain: EPKSSDKTHTCPPCPAPELLGGPSVFLFPPKPKDTLMISRTPEVTCVVVDVSHEDPEVKFNWYVDGVEVHNAKTKPREEQYNSTYRVVSVLTVLHQDWLNGKEYKCKVSNKALPAPIEKTISKAKGQPREPQVCTLPPSRDELTKNQVSLWCLVKGFYPSDIAVEWESNGQPENNYKTTPPVLDSDGSFFLYSKLTVDKSRWQQGNVFSCSVMHEALHNRYTQKSLSLSP
# light: DIVMTQSPLSLPVTPGEPASISCRSSQSLVHSNRNTYLHWYQQKPGQAPRLLIYKVSNRFSGVPDRFSGSGSGTDFTLKISRVEAEDVGVYYCGQGTQVPYTFGQGTKLEIKRTVAAPSVFIFPPSDEQLKSGTASVVCLLNNFYPREAKVQWKVDNALQSGNSQESVTEQDSKDSTYSLSSTLTLSKADYEKHKVYACEVTHQGLSSPVTKSFNRGEC
# notes: one-arm antibody
# B2: NNS6f72 (antibody)
# heavy: B1 heavy with W106E, V107G, V108I, G109W, V110W, R111G
# chain: B1 chain
# light: B1 light
# notes: one-arm antibody
# B3: CE115HA000 D101R one-arm antibody (antibody, human IgG1, kappa, L234A L235A, N297A, name in Kabat numbering)
# heavy: QVQLVESGGGVVQPGRSLRLSCAASGFTFSNAWMHWVRQAPGKGLEWVAQIKAKSNNYATYYAESVKGRFTISRDDSKNSLYLQMNSLKTEDTAVYYCRYVHYGAYYGVRAWGQGTTVTVSSASTKGPSVFPLAPSSKSTSGGTAALGCLVKDYFPEPVTVSWNSGALTSGVHTFPAVLQSSGLYSLSSVVTVPSSSLGTQTYICNVNHKPSNTKVDKKVEPKSCDKTHTCPPCPAPEAAGGPSVFLFPPKPKDTLMISRTPEVTCVVVDVSHEDPEVKFNWYVDGVEVHNAKTKPREEQYASTYRVVSVLTVLHQDWLNGKEYKCKVSNKALPAPIEKTISKAKGQPREPQVYTLPPSRCELTKNQVSLSCAVKGFYPSDIAVEWESNGQPENNYKTTPPVLDSDGSFFLVSKLTVDKSRWQQGNVFSCSVMHEALHNHYTQKSLSLSPDYKDDDDK
# chain: B1 chain
# light: B1 light
# B4: CE115HA000 N76S one-arm antibody (antibody, human IgG1, kappa, L234A L235A, N297A, name in Kabat numbering)
# heavy: B3 heavy with N79S, R110D
# chain: B1 chain
# light: B1 light
# B5: CE115HA000 I51E one-arm antibody (antibody, human IgG1, kappa, L234A L235A, N297A, name in Kabat numbering)
# heavy: B3 heavy with I51E, R110D
# chain: B1 chain
# light: B1 light
# B6: CE115HA000 E61Q one-arm antibody (antibody, human IgG1, kappa, L234A L235A, N297A, name in Kabat numbering)
# heavy: B3 heavy with E64Q, R110D
# chain: B1 chain
# light: B1 light
# B7: CE115HA000 W33A one-arm antibody (antibody, human IgG1, kappa, L234A L235A, N297A, name in Kabat numbering)
# heavy: B3 heavy with W33A, R110D
# chain: B1 chain
# light: B1 light
# B8: CE115HA000 W33F one-arm antibody (antibody, human IgG1, kappa, L234A L235A, N297A, name in Kabat numbering)
# heavy: B3 heavy with W33F, R110D
# chain: B1 chain
# light: B1 light
# B9: CE115HA000 A102P one-arm antibody (antibody, human IgG1, kappa, L234A L235A, N297A, name in Kabat numbering)
# heavy: B3 heavy with R110D, A111P
# chain: B1 chain
# light: B1 light
# B10: CE115HA000 S52cA one-arm antibody (antibody, human IgG1, kappa, L234A L235A, N297A, name in Kabat numbering)
# heavy: B3 heavy with S55A, R110D
# chain: B1 chain
# light: B1 light
# B11: CE115HA000 T57N one-arm antibody (antibody, human IgG1, kappa, L234A L235A, N297A, name in Kabat numbering)
# heavy: B3 heavy with T60N, R110D
# chain: B1 chain
# light: B1 light
# B12: CE115HA000 Y59A one-arm antibody (antibody, human IgG1, kappa, L234A L235A, N297A, name in Kabat numbering)
# heavy: B3 heavy with Y62A, R110D
# chain: B1 chain
# light: B1 light
# B13: CE115HA000 Y97D one-arm antibody (antibody, human IgG1, kappa, L234A L235A, N297A, name in Kabat numbering)
# heavy: B3 heavy with Y103D, R110D
# chain: B1 chain
# light: B1 light
# B14: CE115HA000 K52E one-arm antibody (antibody, human IgG1, kappa, L234A L235A, N297A, name in Kabat numbering)
# heavy: B3 heavy with K52E, R110D
# chain: B1 chain
# light: B1 light
# B15: CE115HA000 G98D one-arm antibody (antibody, human IgG1, kappa, L234A L235A, N297A, name in Kabat numbering)
# heavy: B3 heavy with G104D, R110D
# chain: B1 chain
# light: B1 light
# B16: 154R4B07#1 (antibody, human IgG1, kappa, L234A L235A, N297A)
# heavy: QVQLVESGGGLVQPGRSLRLSCAASGFTFSNAWMHWVRQAPGKGLEWVAQIKDRGNNYAAYYAESVKGRFTISRDDSKNSIYLQMNSLKTEDTAVYYCRYVHYGSYFFASFYFGVDIWGQGTTVTVSSASTKGPSVFPLAPSSKSTSGGTAALGCLVKDYFPEPVTVSWNSGALTSGVHTFPAVLQSSGLYSLSSVVTVPSSSLGTQTYICNVNHKPSNTKVDKKVEPKSCDKTHTCPPCPAPEAAGGPSVFLFPPKPKDTLMISRTPEVTCVVVDVSHEDPEVKFNWYVDGVEVHNAKTKPREEQYASTYRVVSVLTVLHQDWLNGKEYKCKVSNKALPAPIEKTISKAKGQPREPQVYTLPPSRCELTKNQVSLSCAVKGFYPSDIAVEWESNGQPENNYKTTPPVLDSDGSFFLVSKLTVDKSRWQQGNVFSCSVMHEALHNHYTQKSLSLSPDYKDDDDK
# chain: B1 chain
# light: B1 light
# notes: One-arm antibody
# B17: 154R3A01#2 (antibody, human IgG1, kappa, L234A L235A, N297A)
# heavy: QVQLVESGGGLVQPGRSLRLSCAASGFTFSNAWMHWVRQAPGKGLEWVAQIKDRVNQYANYYAESVKGRLTISRDDSKNSIYLQMNSLKTEDTAVYYCRYVHYGLTGYFSGQGGVDAWGQGTTVTVSSASTKGPSVFPLAPSSKSTSGGTAALGCLVKDYFPEPVTVSWNSGALTSGVHTFPAVLQSSGLYSLSSVVTVPSSSLGTQTYICNVNHKPSNTKVDKKVEPKSCDKTHTCPPCPAPEAAGGPSVFLFPPKPKDTLMISRTPEVTCVVVDVSHEDPEVKFNWYVDGVEVHNAKTKPREEQYASTYRVVSVLTVLHQDWLNGKEYKCKVSNKALPAPIEKTISKAKGQPREPQVYTLPPSRCELTKNQVSLSCAVKGFYPSDIAVEWESNGQPENNYKTTPPVLDSDGSFFLVSKLTVDKSRWQQGNVFSCSVMHEALHNHYTQKSLSLSPDYKDDDDK
# chain: B1 chain
# light: B1 light
# notes: One-arm antibody
# B18: 154R4F08#1 (antibody, human IgG1, kappa, L234A L235A, N297A)
# heavy: B16 heavy with R16H
# chain: B1 chain
# light: B1 light
# notes: One-arm antibody
# B19: 154R3A01#1 (antibody, human IgG1, kappa, L234A L235A, N297A)
# heavy: B17 heavy with L70F
# chain: B1 chain
# light: B1 light
# notes: One-arm antibody
# Molecular target: T1, CD3ε homodimer protein (human, UniProt P07766 23-126, limits assumed)
# T1 construct: also called human CD3ε homodimer protein; CD3e homodimer
# Assay: SPR (Biacore T200, 25°C); CD3ε homodimer immobilized on CM4, one-arm antibody as analyte
row,Binder,Kd
1,B1,26 nM
2,B2,150 nM

# Molecular target: CD3ε homodimer protein (human, UniProt P07766 23-126, limits assumed)
# Assay: SPR Biacore T200, CD3e homodimer on CM4 chip, antibody as analyte, 25 C
# Target sequence in this assay (P07766 23-126 limits assumed): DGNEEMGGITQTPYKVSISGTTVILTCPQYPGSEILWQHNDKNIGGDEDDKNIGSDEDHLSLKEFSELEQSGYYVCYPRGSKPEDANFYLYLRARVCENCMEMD
# Experimental: An appropriate amount of CD3ε homodimer protein was immobilized onto Sensor chip CM4 (GE Healthcare Japan Corp.) by the amine coupling method. Then, the antibody having an appropriate concentration was injected thereto as an analyte and allowed to interact with the CD3ε homodimer protein on the sensor chip. Then, the sensor chip was regenerated by the injection of 10 mmol/L glycine-HCl (pH 1.5). The assay was conducted at 25° C., and HBS-EP+ (GE Healthcare Japan Corp.) was used as a running buffer. […] Each parameter was calculated using Biacore T200 Evaluation Software (GE Healthcare Japan Corp.).
# Specifically, when the amount of the antibody comprising CE115HA000 bound was defined as X and the amount of the H chain one-amino acid altered form bound was defined as Y, a value of Z (ratio of amounts bound)=Y/X was used.
row,Binder,KD ratio (KD of CE115HA000/KD of altered form)
1,B3,5.66
2,B4,0.34
3,B5,0.84
4,B6,0.85
5,B7,23
6,B8,0.68
7,B9,3.61
8,B10,0.67
9,B11,9.9
10,B12,6.74
11,B13,64.7
12,B14,19.8
13,B15,2.35

# Molecular target: T2, biotin-labeled human CD154 (human, UniProt P29965 113-261, limits assumed, biotin-labeled)
# T2 construct: also called biotinylated human CD154
# T2 sequence (looked up): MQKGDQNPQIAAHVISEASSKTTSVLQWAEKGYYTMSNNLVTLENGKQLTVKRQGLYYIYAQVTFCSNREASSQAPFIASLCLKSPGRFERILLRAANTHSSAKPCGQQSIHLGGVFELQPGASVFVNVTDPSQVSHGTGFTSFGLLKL
# Assay: ECL competition: biotinylated CD154, CD3ε homodimer as competitor [1]
# Experimental: Next, each obtained IgG was evaluated for its binding to CD3 and human CD154 at the same time by the competition method (electrochemiluminescence method (ECL method)).
# A TBST solution containing 0.5% BSA (referred to as a blocking solution; the TBST solution was TBS (manufactured by Takara Bio Inc.) supplemented with 0.1% Tween 20) was added at 150 μL/well to streptavidin plate (MSD K.K.), and the plate was incubated at room temperature for 1 hour or longer. After removal of the blocking solution, each well was washed three times with 250 μL of a TBST solution. The antibody-antigen complex solution was added thereto at 50 L/well, and the plate was incubated at room temperature for 1 hour so that the biotinylated antigen-antibody-detection sulfo-tag antibody complex solution bound via the biotinylated antigen to the streptavidin plate. After removal of the antibody-antigen complex solution, each well was washed three times with a TBST solution, and a solution of 4× READ buffer (MSD K.K.) diluted 2-fold with water was added thereto at 150 μL/well, followed by the detection of the luminescence signal of the sulfo-tag using Sector Imager 2400 (MSD K.K.).
row,Binder,"Relative ECL reaction (to no antigen coating), CD3ε[+]"
1,B16,1
2,B17,4
3,B18,1
4,B19,21

# From US20220040297A1 (Chugai, published 2022)
